B1: E3 ubiquitin-protein ligase SH3RF1 (Homo sapiens), Q7Z6J0 (parent)
chain: MDESALLDLLECPVCLERLDASAKVLPCQHTFCKRCLLGIVGSRNELRCPECRTLVGSGVEELPSNILLVRLLDGIKQRPWKPGPGGGSGTNCTNALRSQSSTVANCSSKDLQSSQGGQQPRVQSWSPPVRGIPQLPCAKALYNYEGKEPGDLKFSKGDIIILRRQVDENWYHGEVNGIHGFFPTNFVQIIKPLPQPPPQCKALYDFEVKDKEADKDCLPFAKDDVLTVIRRVDENWAEGMLADKIGIFPISYVEFNSAAKQLIEWDKPPVPGVDAGECSSAAAQSSTAPKHSDTKKNTKKRHSFTSLTMANKSSQASQNRHSMEISPPVLISSSNPTAAARISELSGLSCSAPSQVHISTTGLIVTPPPSSPVTTGPSFTFPSDVPYQAALGTLNPPLPPPPLLAATVLASTPPGATAAAAAAGMGPRPMAGSTDQIAHLRPQTRPSVYVAIYPYTPRKEDELELRKGEMFLVFERCQDGWFKGTSMHTSKIGVFPGNYVAPVTRAVTNASQAKVPMSTAGQTSRGVTMVSPSTAGGPAQKLQGNGVAGSPSVVPAAVVSAAHIQTSPQAKVLLHMTGQMTVNQARNAVRTVAAHNQERPTAAVTPIQVQNAAGLSPASVGLSHHSLASPQPAPLMPGSATHTAAISISRASAPLACAAAAPLTSPSITSASLEAEPSGRIVTVLPGLPTSPDSASSACGNSSATKPDKDSKKEKKGLLKLLSGASTKRKPRVSPPASPTLEVELGSAELPLQGAVGPELPPGGGHGRAGSCPVDGDGPVTTAVAGAALAQDAFHRKASSLDSAVPIAPPPRQACSSLGPVLNESRPVVCERHRVVVSYPPQSEAELELKEGDIVFVHKKREDGWFKGTLQRNGKTGLFPGSFVENI
partner: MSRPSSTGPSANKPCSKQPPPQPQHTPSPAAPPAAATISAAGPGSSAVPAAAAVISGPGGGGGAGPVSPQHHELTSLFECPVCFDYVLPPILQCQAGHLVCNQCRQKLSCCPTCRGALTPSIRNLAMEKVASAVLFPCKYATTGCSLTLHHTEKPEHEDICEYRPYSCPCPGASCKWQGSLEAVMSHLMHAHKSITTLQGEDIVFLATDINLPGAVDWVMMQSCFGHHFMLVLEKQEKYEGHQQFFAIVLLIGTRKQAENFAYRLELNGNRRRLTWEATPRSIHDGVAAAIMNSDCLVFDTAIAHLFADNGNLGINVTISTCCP

Variants of: B1
Conditions: with siah2_human SIAH2, O43255

Question: Which “effect of a mutation on the interaction” value does the source give for V605N;P607N here?
Answer: disrupting interaction

From IntAct's records for PubMed 21586138
